Data: PMC6370785

Assays:
[1] = molecular target: recombinant human TRAIL/Apo2 Ligand (rhTRAIL) (human) (UniProt P50591); assay: SDS-PAGE and Western blot; 100 ng rhTRAIL as positive control on the same blot; whether BS3 was added to it is not told
[2] = molecular target: soluble TRAIL (sTRAIL), secretable trimer-forming variant of human TRAIL (human | yeast) (UniProt P50591); assay: cross-linking; 293T culture supernatant (48 h after transfection) with 1 mM BS3, 4-20% SDS-PAGE, Western blot with anti-TRAIL
[3] = molecular target: soluble TRAIL (sTRAIL), secretable trimer-forming variant of human TRAIL (human | yeast) (UniProt P50591); assay: SDS-PAGE and Western blot without cross-linker; 293T culture supernatant (48 h after transfection) without BS3, 4-20% SDS-PAGE, Western blot with anti-TRAIL

Row | stoichiometry N [1] | stoichiometry N [2] | stoichiometry N [3] | Substance
1 | 3 |  |  | recombinant human TRAIL/Apo2 Ligand (rhTRAIL) (from UniProt P50591 1-281)
2 |  | 3 | 2 | soluble TRAIL (sTRAIL), secretable trimer-forming variant of human TRAIL (from UniProt P50591 114-281) (ligand)
